Patent publication US11833164B2, “Methods of treating Fabry disease in patients having a mutation in the GLA gene” (Amicus Therapeutics, Inc., priority 2019, dated 2023)
Changes are numbered by the printed parent chain. Numbers in names are those of the source.

Tested on: mutant form of α-Gal A expressed in HEK-293 cells
Experiment: HEK assay (GLP HEK / Migalastat Amenability Assay): α-Gal A activity in lysates of transiently transfected HEK-293 cells incubated with or without 10 μM migalastat
Format: cell-based, human
Conditions: for Absolute increase (% WT) / Relative increase: 10 μM migalastat versus baseline; for Baseline α-Gal A activity (% WT): absence of migalastat; for Baseline α-Gal A activity (% WT) / 10 μM migalastat α-Gal A activity (% WT): percentage of baseline wild-type α-Gal A activity; for Baseline α-Gal A activity (% WT) / Baseline α-Gal A activity / 10 μM migalastat α-Gal A activity / 10 μM migalastat α-Gal A activity (% WT): mean ± SEM; for Baseline α-Gal A activity / 10 μM migalastat α-Gal A activity: lysates of HEK-293 cells transiently transfected with the mutant form; for Baseline α-Gal A activity: incubated 5 days in absence of migalastat; for 10 μM migalastat α-Gal A activity: incubated 5 days with 10 μM migalastat; for 10 μM migalastat α-Gal A activity (% WT): with 10 μM migalastat, 5 days
How it was run: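 HEK-293 cells transiently transfected with mutant α-Gal A and incubated with or without 10 μM migalastat; lysate activity given as nmol free 4-MU released per mg protein per hour. Values are mean±SEM.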

B1: E341A (protein)
chain: MQLRNPELHLGCALALRFLALVSWDIPGARALDNGLARTPTMGWLHWERFMCNLDCQEEPDSCISEKLFMEMAELMVSEGWKDAGYEYLCIDDCWMAPQRDSEGRLQADPQRFPHGIRQLANYVHSKGLKLGIYADVGNKTCAGFPGSFGYYDIDAQTFADWGVDLLKFDGCYCDSLENLADGYKHMSLALNRTGRSIVYSCEWPLYMWPFQKPNYTEIRQYCNHWRNFADIDDSWKSIKSILDWTSFNQERIVDVAGPGGWNDPDMLVIGNFGLSWNQQVTQMALWAIMAAPLFMSNDLRHISPQAKALLQDKDVIAINQDPLGKQGYQLRQGDNFEVWARPLSGLAWAVAMINRQEIGGPRSYTIAVASLGKGVACNPACFITQLLPVKRKLGFYEWTSRLRSHINPTGTVLLQLENTMQMSLKDLL
B1 was tested, and the “Absolute increase (% WT)” value was 11.6 % WT, the Relative increase was 4.1 and the “Baseline α-Gal A activity (% WT)” value was 3.8 ± 0.4 % WT. The “Baseline α-Gal A activity” value was 1444 ± 159 nmol/mg/h, the “10 μM migalastat α-Gal A activity” value was 5855 ± 690 nmol/mg/h and the “10 μM migalastat α-Gal A activity (% WT)” value was 15.4 ± 1.3 % WT.

B2: L344R (protein)
chain: B1 chain with A341E, L344R
With B2 the “Absolute increase (% WT)” value was 15.3 % WT, the Relative increase was 2.3 and the “Baseline α-Gal A activity (% WT)” value was 10.9 ± 1.4 % WT. The “Baseline α-Gal A activity” value was 4983 ± 848 nmol/mg/h, the “10 μM migalastat α-Gal A activity” value was 11592 ± 1593 nmol/mg/h and the “10 μM migalastat α-Gal A activity (% WT)” value was 26.2 ± 2.6 % WT.

B3: G346A (protein)
chain: B1 chain with A341E, G346A
With B3 the “Absolute increase (% WT)” value was 22.0 % WT, the Relative increase was 1.4 and the “Baseline α-Gal A activity (% WT)” value was 58.3 ± 3.3 % WT. For the same molecule, the “Baseline α-Gal A activity” value was 23263 ± 1479 nmol/mg/h, the “10 μM migalastat α-Gal A activity” value was 31948 ± 1306 nmol/mg/h and the “10 μM migalastat α-Gal A activity (% WT)” value was 80.4 ± 2.8 % WT.

B4: W349C (protein)
chain: B1 chain with A341E, W349C
With B4 the “Absolute increase (% WT)” value was 12.3 % WT, the Relative increase was 1.3 and the “Baseline α-Gal A activity (% WT)” value was 41.5 ± 2.6 % WT. For the same molecule, the “Baseline α-Gal A activity” value was 17800 ± 1182 nmol/mg/h, the “10 μM migalastat α-Gal A activity” value was 23210 ± 1299 nmol/mg/h and the “10 μM migalastat α-Gal A activity (% WT)” value was 53.7 ± 2.5 % WT.

B5: G346D (protein)
chain: B1 chain with A341E, G346D
With B5 the “Absolute increase (% WT)” value was 35.8 % WT, the Relative increase was 1.5 and the “Baseline α-Gal A activity (% WT)” value was 67.5 ± 6.4 % WT. For the same molecule, the “Baseline α-Gal A activity” value was 31327 ± 3822 nmol/mg/h, the “10 μM migalastat α-Gal A activity” value was 46560 ± 3904 nmol/mg/h and the “10 μM migalastat α-Gal A activity (% WT)” value was 103.3 ± 6 % WT.

B6: A348D (protein)
chain: B1 chain with A341E, A348D
With B6 the “Absolute increase (% WT)” value was 8.4 % WT, the Relative increase was 1.2 and the “Baseline α-Gal A activity (% WT)” value was 41.6 ± 1.5 % WT. For the same molecule, the “Baseline α-Gal A activity” value was 21682 ± 817 nmol/mg/h, the “10 μM migalastat α-Gal A activity” value was 26025 ± 1129 nmol/mg/h and the “10 μM migalastat α-Gal A activity (% WT)” value was 50 ± 2.2 % WT.

B7: E341Q (protein)
chain: B1 chain with A341Q
In the case of B7, the “Absolute increase (% WT)” value is reported as 19.7 % WT, the Relative increase is reported as 1.4 and the “Baseline α-Gal A activity (% WT)” value is reported as 55.5 ± 3.7 % WT. For the same molecule, the “Baseline α-Gal A activity” value was 20802 ± 2164 nmol/mg/h, the “10 μM migalastat α-Gal A activity” value was 28411 ± 2891 nmol/mg/h and the “10 μM migalastat α-Gal A activity (% WT)” value was 75.2 ± 4.1 % WT.

B8: L344V (protein)
chain: B1 chain with A341E, L344V
For B8, the “Absolute increase (% WT)” value was 16.8 % WT, the Relative increase was 1.4 and the “Baseline α-Gal A activity (% WT)” value was 40.6 ± 3.2 % WT. The “Baseline α-Gal A activity” value was 13586 ± 1026 nmol/mg/h, the “10 μM migalastat α-Gal A activity” value was 19262 ± 903 nmol/mg/h and the “10 μM migalastat α-Gal A activity (% WT)” value was 57.5 ± 2.5 % WT.

B9: L344F (protein)
chain: B1 chain with A341E, L344F
In the case of B9, the “Absolute increase (% WT)” value is reported as 9.0 % WT, the Relative increase is reported as 16.7 and the “Baseline α-Gal A activity (% WT)” value is reported as 0.6 ± 0.1 % WT. The “Baseline α-Gal A activity” value was 217 ± 25 nmol/mg/h, the “10 μM migalastat α-Gal A activity” value was 3629 ± 614 nmol/mg/h and the “10 μM migalastat α-Gal A activity (% WT)” value was 9.6 ± 1.4 % WT.

B10: A350G (protein)
chain: B1 chain with A341E, A350G
B10 was tested, and the “Absolute increase (% WT)” value was 9.5 % WT, the Relative increase was 1.2 and the “Baseline α-Gal A activity (% WT)” value was 41 ± 0.9 % WT. The “Baseline α-Gal A activity” value was 21459 ± 695 nmol/mg/h, the “10 μM migalastat α-Gal A activity” value was 26360 ± 1002 nmol/mg/h and the “10 μM migalastat α-Gal A activity (% WT)” value was 50.5 ± 1.7 % WT.

B11: P343S (protein)
chain: B1 chain with A341E, P343S
In the case of B11, the “Absolute increase (% WT)” value is reported as 19.0 % WT, the Relative increase is reported as 1.3 and the “Baseline α-Gal A activity (% WT)” value is reported as 62.1 ± 2.7 % WT. The “Baseline α-Gal A activity” value was 22132 ± 1243 nmol/mg/h, the “10 μM migalastat α-Gal A activity” value was 29289 ± 2351 nmol/mg/h and the “10 μM migalastat α-Gal A activity (% WT)” value was 81.1 ± 4.6 % WT.

B12: W349L (protein)
chain: B1 chain with A341E, W349L
In the case of B12, the “Absolute increase (% WT)” value is reported as 11.8 % WT, the Relative increase is reported as 1.3 and the “Baseline α-Gal A activity (% WT)” value is reported as 35 ± 1.6 % WT. For the same molecule, the “Baseline α-Gal A activity” value was 18128 ± 742 nmol/mg/h, the “10 μM migalastat α-Gal A activity” value was 24184 ± 1517 nmol/mg/h and the “10 μM migalastat α-Gal A activity (% WT)” value was 46.8 ± 3.2 % WT.

B13: G346C (protein)
chain: B1 chain with A341E, G346C
For B13, the “Absolute increase (% WT)” value was 9.7 % WT, the Relative increase was 1.3 and the “Baseline α-Gal A activity (% WT)” value was 39.5 ± 1.9 % WT. For the same molecule, the “Baseline α-Gal A activity” value was 18258 ± 1054 nmol/mg/h, the “10 μM migalastat α-Gal A activity” value was 22856 ± 1772 nmol/mg/h and the “10 μM migalastat α-Gal A activity (% WT)” value was 49.2 ± 2.9 % WT.

B14: P343A (protein)
chain: B1 chain with A341E, P343A
With B14 the “Absolute increase (% WT)” value was 21.2 % WT, the Relative increase was 1.3 and the “Baseline α-Gal A activity (% WT)” value was 69.5 ± 4.9 % WT. For the same molecule, the “Baseline α-Gal A activity” value was 25254 ± 2385 nmol/mg/h, the “10 μM migalastat α-Gal A activity” value was 32890 ± 2292 nmol/mg/h and the “10 μM migalastat α-Gal A activity (% WT)” value was 90.7 ± 3.7 % WT.

B15: L347I (protein)
chain: B1 chain with A341E, L347I
B15 was tested, and the “Absolute increase (% WT)” value was 17.4 % WT, the Relative increase was 1.3 and the “Baseline α-Gal A activity (% WT)” value was 65 ± 3.8 % WT. The “Baseline α-Gal A activity” value was 26815 ± 2533 nmol/mg/h, the “10 μM migalastat α-Gal A activity” value was 33517 ± 2802 nmol/mg/h and the “10 μM migalastat α-Gal A activity (% WT)” value was 82.4 ± 5 % WT.

B16: G346V (protein)
chain: B1 chain with A341E, G346V
B16 was tested, and the “Absolute increase (% WT)” value was 22.7 % WT, the Relative increase was 1.8 and the “Baseline α-Gal A activity (% WT)” value was 28.8 ± 2.4 % WT. For the same molecule, the “Baseline α-Gal A activity” value was 11683 ± 1406 nmol/mg/h, the “10 μM migalastat α-Gal A activity” value was 20902 ± 2356 nmol/mg/h and the “10 μM migalastat α-Gal A activity (% WT)” value was 51.4 ± 3.9 % WT.
